Assay results taken from patent US10301203B2, “Chloroperoxidase-catalyzed degradation of pharmaceutical pollutants in wastewater” (THE FLORIDA INTERNATIONAL UNIVERSITY BOARD OF TRUSTEES, priority 2017, dated 2019).

How the values were obtained:
Type in all cases: biochemical
Conditions in all cases: CPO Rz=1.03
[1] = Standard MCD assay, halogenation activity of CPO
Method: (§1) The halogenation activity of CPO used in this study was 4232 U·mL^−1 based on the standard MCD assay (Hager et al., 1966). The aromatic hydroxylation activity (3563 U·mL-1) of the enzyme was determined by monitoring the hydroxylation of naphthalene into I-naphthol (Kluge et al., 2007). The classic peroxidase activity of the enzyme determined using ABTS as the substrate was 3071 U·mL^−1 (Manoj et al., 2008).

[2] = Aromatic hydroxylation activity of CPO, naphthalene hydroxylation
Method: as §1

[3] = Classic peroxidase activity of CPO, ABTS substrate
Method: as §1

B1: CPO: heme-containing glycoprotein secreted by the fungus Caldariomyces fumago (protein, UniProt P04963 21-319, looked up)
Chloroperoxidase: QEPGSGIGYPYDNNTLPYVAPGPTDSRAPCPALNALANHGYIPHDGRAISRETLQNAFLNHMGIANSVIELALTNAFVVCEYVTGSDCGDSLVNLTLLAEPHAFEHDHSFSRKDYKQGVANSNDFIDNRNFDAETFQTSLDVVAGKTHFDYADMNEIRLQRESLSNELDFPGWFTESKPIQNVESGFIFALVSDFNLPDNDENPLVRIDWWKYWFTNESFPYHLGWHPPSPAREIEFVTSASSAVLAASVTSTPSSLPSGAIGPGAEAVPLSFASTMTPFLLATNAPYYAQDPTLGPND
[1]
  halogenation activity: 4232 U·mL^−1
[2]
  aromatic hydroxylation activity: 3563 U·mL-1
[3]
  classic peroxidase activity: 3071 U·mL^−1
